Data reported in patent US20080008712.

Legend:
[1] = molecular target: T1, CDC25B1
T1 chain: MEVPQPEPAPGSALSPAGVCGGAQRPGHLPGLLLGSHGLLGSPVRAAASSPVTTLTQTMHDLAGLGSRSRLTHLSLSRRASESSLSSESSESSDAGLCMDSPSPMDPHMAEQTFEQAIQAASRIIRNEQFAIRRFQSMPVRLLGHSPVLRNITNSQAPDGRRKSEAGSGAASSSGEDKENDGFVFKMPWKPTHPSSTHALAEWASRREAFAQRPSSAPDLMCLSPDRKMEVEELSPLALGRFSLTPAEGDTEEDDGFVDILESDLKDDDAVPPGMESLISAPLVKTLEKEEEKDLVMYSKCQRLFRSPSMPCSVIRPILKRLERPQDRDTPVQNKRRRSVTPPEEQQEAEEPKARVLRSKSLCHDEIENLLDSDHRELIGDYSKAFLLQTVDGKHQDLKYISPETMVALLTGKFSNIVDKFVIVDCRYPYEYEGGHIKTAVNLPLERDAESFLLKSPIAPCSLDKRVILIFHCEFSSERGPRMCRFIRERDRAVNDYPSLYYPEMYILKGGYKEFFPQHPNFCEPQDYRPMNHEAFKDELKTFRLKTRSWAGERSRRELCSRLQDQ

[2] = molecular target: T2, CDC25B2
T2 chain: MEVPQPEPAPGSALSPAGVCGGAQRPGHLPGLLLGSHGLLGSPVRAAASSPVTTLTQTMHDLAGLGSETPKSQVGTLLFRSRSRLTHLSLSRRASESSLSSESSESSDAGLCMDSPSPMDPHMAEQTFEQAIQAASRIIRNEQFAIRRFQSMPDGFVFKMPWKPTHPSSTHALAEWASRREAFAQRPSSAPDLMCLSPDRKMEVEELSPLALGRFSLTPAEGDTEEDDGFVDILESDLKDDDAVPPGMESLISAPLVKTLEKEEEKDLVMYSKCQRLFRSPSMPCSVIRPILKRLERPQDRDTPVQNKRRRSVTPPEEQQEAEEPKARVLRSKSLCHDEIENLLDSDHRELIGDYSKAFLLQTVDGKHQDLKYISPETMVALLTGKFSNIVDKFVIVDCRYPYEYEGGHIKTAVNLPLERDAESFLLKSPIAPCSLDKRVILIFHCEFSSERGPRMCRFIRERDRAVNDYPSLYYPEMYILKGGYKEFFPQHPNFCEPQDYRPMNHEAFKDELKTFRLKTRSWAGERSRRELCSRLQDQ

[3] = molecular target: T3, CDC25B3 recombinant protein
T3 chain: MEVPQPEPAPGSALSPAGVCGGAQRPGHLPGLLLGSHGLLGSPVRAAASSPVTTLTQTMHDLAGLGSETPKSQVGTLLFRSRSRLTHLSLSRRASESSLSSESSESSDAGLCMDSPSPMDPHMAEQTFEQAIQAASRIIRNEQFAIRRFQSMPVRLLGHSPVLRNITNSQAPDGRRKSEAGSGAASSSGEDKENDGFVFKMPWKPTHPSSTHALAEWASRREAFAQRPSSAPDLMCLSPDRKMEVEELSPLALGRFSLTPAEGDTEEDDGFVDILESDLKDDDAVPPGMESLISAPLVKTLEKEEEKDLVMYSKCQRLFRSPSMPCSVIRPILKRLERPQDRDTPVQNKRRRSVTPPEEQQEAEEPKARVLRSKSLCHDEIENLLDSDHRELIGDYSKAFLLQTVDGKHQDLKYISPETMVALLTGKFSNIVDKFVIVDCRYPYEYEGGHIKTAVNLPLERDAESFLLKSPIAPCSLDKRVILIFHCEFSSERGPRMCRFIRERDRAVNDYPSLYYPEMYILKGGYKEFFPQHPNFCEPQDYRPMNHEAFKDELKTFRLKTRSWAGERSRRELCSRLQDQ

[4] = molecular target: T4, CDC25B4
T4 chain: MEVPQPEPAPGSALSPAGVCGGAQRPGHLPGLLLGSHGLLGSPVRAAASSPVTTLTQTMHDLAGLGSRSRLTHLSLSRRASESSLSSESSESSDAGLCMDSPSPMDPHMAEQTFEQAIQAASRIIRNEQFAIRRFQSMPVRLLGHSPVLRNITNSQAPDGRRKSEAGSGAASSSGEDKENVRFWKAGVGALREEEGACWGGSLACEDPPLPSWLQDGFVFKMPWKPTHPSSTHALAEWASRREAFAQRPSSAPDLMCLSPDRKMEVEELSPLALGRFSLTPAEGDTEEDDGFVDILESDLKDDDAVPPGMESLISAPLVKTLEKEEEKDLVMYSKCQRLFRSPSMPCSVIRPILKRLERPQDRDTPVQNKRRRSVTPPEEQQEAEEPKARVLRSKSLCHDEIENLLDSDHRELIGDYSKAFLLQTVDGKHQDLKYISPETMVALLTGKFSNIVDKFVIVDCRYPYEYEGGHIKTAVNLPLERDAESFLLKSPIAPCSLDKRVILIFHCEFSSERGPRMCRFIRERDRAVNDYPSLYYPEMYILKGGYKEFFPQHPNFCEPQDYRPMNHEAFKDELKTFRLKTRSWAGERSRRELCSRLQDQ

[5] = molecular target: T5, CDC25B5
T5 chain: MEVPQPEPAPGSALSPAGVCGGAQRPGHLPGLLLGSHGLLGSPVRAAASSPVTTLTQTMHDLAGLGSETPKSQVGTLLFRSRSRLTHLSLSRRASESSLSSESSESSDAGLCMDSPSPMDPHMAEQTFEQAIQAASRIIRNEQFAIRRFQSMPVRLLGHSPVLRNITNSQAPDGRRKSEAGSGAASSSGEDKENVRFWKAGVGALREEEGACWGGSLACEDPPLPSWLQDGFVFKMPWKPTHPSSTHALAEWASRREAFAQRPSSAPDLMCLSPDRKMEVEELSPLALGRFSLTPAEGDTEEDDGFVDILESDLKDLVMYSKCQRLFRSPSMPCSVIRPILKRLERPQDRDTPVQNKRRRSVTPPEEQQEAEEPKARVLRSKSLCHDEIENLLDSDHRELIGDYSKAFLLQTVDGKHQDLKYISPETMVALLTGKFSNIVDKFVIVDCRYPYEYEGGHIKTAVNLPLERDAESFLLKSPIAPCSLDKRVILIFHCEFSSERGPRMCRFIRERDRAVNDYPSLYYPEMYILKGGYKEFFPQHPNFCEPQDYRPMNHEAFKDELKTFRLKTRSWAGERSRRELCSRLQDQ

B1: recombinant Aurora A kinase (protein)
chain: MDRSKENCISGPVKATAPVGGPKRVLVTQQFPCQNPLPVNSGQAQRVLCPSNSSQRIPLQAQKLVSSHKPVQNQKQKQLQATSVPHPVSRPLNNTQKSKQPLPSAPENNPEEELASKQKNEESKKRQWALEDFEIGRPLGKGKFGNVYLAREKQSKFILALKVLFKAQLEKAGVEHQLRREVEIQSHLRHPNILRLYGYFHDATRVYLILEYAPLGTVYRELQKLSKFDEQRTATYITELANALSYCHSKRVIHRDIKPENLLLGSAGELKIADFGWSVHAPSSRRTTLCGTLDYLPPEMIEGRMHDEKVDLWSLGVLCYEFLVGKPPFEANTYQETYKRISRVEFTFPDFVTEGARDLISRLLKHNPSQRPMLREVLEHPWITANSSKPSNCQNKESASKQS
in vitro phosphorylation [1]: the recombinant Aurora A kinase phosphorylates CDC25B1 on the serine 339 | in vitro phosphorylation [2]: CDC25B2 on the serine 312 | in vitro phosphorylation, MS/MS of the tryptic peptide 353-SVTPPEEQQEAEEPK-367 [3]: it is the serine 353 which is phosphorylated by the kinase | in vitro phosphorylation [4]: CDC25B4 on the serine 374 | in vitro phosphorylation [5]: CDC25B5 on the serine 361
